Measured values reported in patent US20260028400A1 (AIMED BIO, published 2026).
Numbering of substitutions follows the chain as printed.

B1: P015042 (antibody, V domains shown)
VH: EVQLLESGGGLVQPGGSLRLSCAASGFTFSDYAMSWVRQAPGKGLEWVSVISSDGGSIYYADSVKGRFTISRDNSKNTLYLQMNSLRAEDTAVYYCAKDRSRDMEVDFDYWGQGTLVTVSS
VL: QSVLTQPPSASGTPGQRVTISCSGSSSNIGSNYVTWYQQLPGTAPKLLIYDSSQRPSGVPDRFSGSKSGTSASLAISGLRSEDEADYYCGTWDYSLSGYVFGGGTKLTVL
B2: P015042v1-6 (antibody, V domains shown)
VH: B1 VH with G55K
VL: B1 VL with S52K, S97N, G98A
notes: Variant of P015042v1, tested as IgG
B3: P015042v1 (antibody, V domains shown)
VH: B1 VH
VL: B1 VL with S97N
notes: Tested as complete IgG; Parent of the variants P015042v1-1 to P015042v1-6
B4: P015044 (antibody, V domains shown)
VH: EVQLLESGGGLVQPGGSLRLSCAASGFTFSNYAMHWVRQAPGKGLEWVSIIYPDDDTRYNPSFRGRFTISRDNSKNTLYLQMNSLRAEDTAVYYCARDLLYAGDYWGQGTLVTVSS
VL: QSVLTQPPSASGTPGQRVTISCGGNNIESKAVHWYQQLPGTAPKLLIYANNKRPSGVPDRFSGSKSGTSASLAISGLRSEDEADYYCQSYDSNKVVFGGGTKLTVL
B5: P015004 (antibody, V domains shown)
VH: EVQLLESGGGLVQPGGSLRLSCAASGFTFSDYAMAWVRQAPGKGLEWVSIIYPGDSETIYSPSFEGRFTISRDNSKNTLYLQMNSLRAEDTAVYYCARDTYWEGYFDLWGQGTLVTVSS
VL: EIVLTQSPGTLSLSPGERATLSCRASQGISNYLAWYQQKPGQAPRLLIYDASNLESGIPDRFSGSGSGTDFTLTISRLEPEDFAVYYCQQYANLPYTFGQGTKVEIK
B6: P015012 (antibody, V domains shown)
VH: EVQLLESGGGLVQPGGSLRLSCAASGFTFSGYSMSWVRQAPGKGLEWVSGISYGGSSISYADSVKGRFTISRDNSKNTLYLQMNSLRAEDTAVYYCAKPVRRWARFRLSYDDAMDVWGQGTLVTVSS
VL: B1 VL with S31N, Y33A, T35N, D51A, S52N, Q54H, Y94S
B7: P015005 (antibody, V domains shown)
VH: EVQLLESGGGLVQPGGSLRLSCAASGFTFSDYSMSWVRQAPGKGLEWVSGISHNGGSTYYADSVKGRFTISRDNSKNTLYLQMSSLRAEDTAVYYCARDVSRWSKTRWSYDNAMDVWGQGTLVTVSS
VL: B1 VL with T35N, D51S, S52D, Q54H, T91S, Y94S, S97N, G98A, F101L
B8: P015018 (antibody, V domains shown)
VH: EVQLLESGGGLVQPDGSMRLICAASGFTFSSYAKHWVRQAPGKGLEWVSEIYTSGSTNYNPSLKSRFTISRDNSKNTLYLQMNSLRAEDTAVYYCARDTWWEGYFDLWGQGTLVTVSS
VL: B5 VL with G28S, I29V, N31T, N53S, Y91S, A92Y, Y96H
B9: P015001 (antibody, V domains shown)
VH: EVQLLESGGGLAQPGGSLRLSCAASGFTFSNYDMSWVRQAPGKGPEWVSGIYSGNSNTYYADSVKGRFTISRDNSKNTLYLQMNSLRAEDTAVYYCARDLQYTEWAGFDYWGQGTLVTVSS
VL: B1 VL with Y33D, S52D, Q54K, G90A, T91A, Y94D

The binders below were run against T1, ROR1 expressed on cell surface (Jeko-1 cell line, AMB-LC-0003T and AMB-LC-0002T patient-derived lung cancer … (human, UniProt Q01973 30-937)) (assay: flow cytometry on Jeko-1 cells).
T1 construct: whole, on cells; Endogenous ROR1 on human cells; the cell is named in the assay or readout field of each row; also called ROR1 antigen expressed in AMB-LC-0003T patient-derived lung cancer cells; ROR1 antigen expressed in Jeko-1 cell line
T1 sequence (Q01973 30-937): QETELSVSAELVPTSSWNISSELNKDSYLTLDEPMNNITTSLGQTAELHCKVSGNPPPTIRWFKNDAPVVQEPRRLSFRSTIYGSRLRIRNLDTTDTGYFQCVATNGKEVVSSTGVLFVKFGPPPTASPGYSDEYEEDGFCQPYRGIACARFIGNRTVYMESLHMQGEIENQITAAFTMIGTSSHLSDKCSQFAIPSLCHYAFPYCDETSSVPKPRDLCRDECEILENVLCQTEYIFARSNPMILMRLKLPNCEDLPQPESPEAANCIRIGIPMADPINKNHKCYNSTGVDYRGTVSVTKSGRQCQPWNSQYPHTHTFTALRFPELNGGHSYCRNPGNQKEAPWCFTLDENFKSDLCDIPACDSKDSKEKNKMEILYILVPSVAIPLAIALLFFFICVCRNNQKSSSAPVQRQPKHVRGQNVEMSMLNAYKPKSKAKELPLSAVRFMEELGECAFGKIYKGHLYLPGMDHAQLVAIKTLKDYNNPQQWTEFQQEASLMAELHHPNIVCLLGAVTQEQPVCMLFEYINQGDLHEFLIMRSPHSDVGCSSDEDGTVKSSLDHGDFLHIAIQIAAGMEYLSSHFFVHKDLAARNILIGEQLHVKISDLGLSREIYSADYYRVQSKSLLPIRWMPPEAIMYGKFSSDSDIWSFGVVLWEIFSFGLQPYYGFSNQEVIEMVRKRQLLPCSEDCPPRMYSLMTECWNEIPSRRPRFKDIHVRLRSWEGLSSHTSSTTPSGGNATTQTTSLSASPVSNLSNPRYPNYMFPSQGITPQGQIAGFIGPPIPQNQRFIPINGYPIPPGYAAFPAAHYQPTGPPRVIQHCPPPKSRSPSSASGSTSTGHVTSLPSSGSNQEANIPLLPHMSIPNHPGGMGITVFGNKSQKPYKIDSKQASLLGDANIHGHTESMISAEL
Protocol: (§1) Before therapeutic use of anti-ROR1 antibodies, it is very important to determine whether the antibody binds to the antigen expressed on the cell surface. The cell binding ability of anti-ROR1 antibodies developed by the present inventors was measured using FACS in Jeko-1 cell line and AMB-LC-0003T patient-derived cells, which were confirmed to have high ROR1 expression. Each cell type was dispensed at 1×10⁵ cells/100 μl FACS buffer per well in a 96-well plate.
(§2) Cell binding ability analysis was performed using anti-ROR1 candidate antibodies P015004, P015042, P015043, P015044, P015042v1 with improved biological and physical properties, and P015042v1-6, one of modified materials thereof. Each antibody was serially diluted 10-fold from 100 nM to 10 nM, 1 nM, 100 pM, 10 pM, and 1 pM and the cells were treated therewith. After reaction at 4° C. for 30 minutes, washing was performed twice. PE-labeled goat anti-human IgG Fc PE (ThermoFisher; 12-4998-82) as a secondary antibody was diluted at a ratio of 1:100 in FACS buffer, and 100 μl thereof was dispensed per well. Reaction again at 4° C. for 30 minutes and washing twice were performed. Finally, 100 μl of FACS buffer was dispensed per well, followed by mixing well with a pipette and then flow cytometry using a NovoCyte flow cytometer (Agilent). Analysis was performed using GraphPad Prism 9.3.1, and EC₅₀ values were obtained using a log (agonist) vs. response-Variable slope nonlinear graph model.

EC50	Binder
0.081 nM	B1
0.011 nM	B2
0.014 nM	B3
0.13 nM	B4
8.16 nM	B5

These binders were tested against T2, Ig-like (human, UniProt Q01973) (assay: ELISA, IgG on coated domain, OD450).
T2 construct: Ig-like domain, His tag; also called Ig-like domain; human ROR1-immunoglobulin domain
T2 sequence (Q01973 39-151 limits assumed): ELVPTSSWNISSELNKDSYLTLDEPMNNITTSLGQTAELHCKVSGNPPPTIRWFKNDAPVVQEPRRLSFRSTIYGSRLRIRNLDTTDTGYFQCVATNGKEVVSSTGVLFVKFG
Protocol: (§3) ELISA was performed to analyze the binding domain using the IgG antibody of the selected clone.
(§4) After washing with PBST and distilled water, binding at room temperature for 1 hour using a goat-derived HRP-conjugated anti-human antibody (Invitrogen, 31482, Goat anti-Human IgG F(ab′)₂ Secondary Antibody, HRP) and then washing again using PBST and distilled water were performed. After color development by adding TMB substrate solution (Thermo Scientific, 34029, 1-Step™ Ultra TMB-ELISA Substrate Solution), the color reaction was stopped with stop solution (Invitrogen, SS04, ELISA Stop Solution), and the absorbance was measured at OD 450 nm. The anti-ROR1 antibody clone binding to each domain was analyzed through ELISA (FIG. 3).

EC50 (read off the curve)	binding result	Binder
~7 nM	–	B1
–	no binding (tested: 300 nM)	B6
–	no binding (tested: 300 nM)	B7
–	no binding (tested: 300 nM)	B5
–	no binding (tested: 300 nM)	B8

These binders were tested against T3, FZD (human, UniProt Q01973) (assay: ELISA, IgG on coated domain, OD450).
T3 construct: frizzled domain, His tag; also called Frizzled domain; human ROR1-frizzled domain
T3 sequence (Q01973 165-305 limits assumed): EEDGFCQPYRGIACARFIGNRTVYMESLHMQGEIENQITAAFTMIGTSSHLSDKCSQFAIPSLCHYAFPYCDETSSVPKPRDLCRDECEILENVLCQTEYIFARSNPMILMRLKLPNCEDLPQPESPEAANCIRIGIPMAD
Protocol: as §3, §4

binding result	Binder
no binding (tested: 300 nM)	B1
no binding (tested: 300 nM)	B9
no binding (tested: 300 nM)	B4
no binding (tested: 300 nM)	B5
no binding (tested: 300 nM)	B8

The binders below were run against T4, Ig+FZD (human) (assay: ELISA, IgG on coated domain, OD450).
T4 construct: Ig-like plus frizzled domains, His tag; also called IF domain; human ROR1-immunoglobulin-frizzled domain
T4 sequence (Q01973 30-305): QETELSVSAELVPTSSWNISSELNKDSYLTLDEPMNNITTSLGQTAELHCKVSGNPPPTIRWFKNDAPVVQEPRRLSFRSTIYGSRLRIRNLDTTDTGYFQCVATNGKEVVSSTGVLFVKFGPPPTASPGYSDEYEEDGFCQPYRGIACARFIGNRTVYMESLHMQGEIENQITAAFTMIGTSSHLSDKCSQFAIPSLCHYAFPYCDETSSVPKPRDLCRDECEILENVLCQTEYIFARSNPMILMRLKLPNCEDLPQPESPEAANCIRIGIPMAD
Protocol: as §3, §4

EC50 (read off the curve)	Binder
~0.4 nM	B1
~2 nM	B6
~3 nM	B5
~10 nM	B8

The binders below were run against T5, FZD+KRD (human, UniProt Q01973) (assay: ELISA, IgG on coated domain, OD450).
T5 construct: frizzled plus kringle domains, His tag; also called FK domain; human ROR1-frizzled-kringle domain
T5 sequence (Q01973 165-395 limits assumed): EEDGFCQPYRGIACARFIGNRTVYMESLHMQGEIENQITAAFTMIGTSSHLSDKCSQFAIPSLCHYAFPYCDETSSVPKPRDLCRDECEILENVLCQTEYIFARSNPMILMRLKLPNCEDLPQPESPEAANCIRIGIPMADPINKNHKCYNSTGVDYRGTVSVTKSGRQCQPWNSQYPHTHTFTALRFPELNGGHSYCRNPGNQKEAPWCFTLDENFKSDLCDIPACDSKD
Protocol: as §3, §4

binding result	EC50 (read off the curve)	Binder
no binding (tested: 300 nM)	–	B1
no binding (tested: 300 nM)	–	B9
–	~6 nM	B7
no binding (tested: 300 nM)	–	B4
no binding (tested: 300 nM)	–	B5
no binding (tested: 300 nM)	–	B8

Each binder was assayed against T6, human ROR1 (human, UniProt Q01973 30-403, limits assumed) (assay: ELISA, IgG on coated human ROR1, OD450).
T6 construct: also called human ROR1 protein
T6 sequence (Q01973 30-403 limits assumed): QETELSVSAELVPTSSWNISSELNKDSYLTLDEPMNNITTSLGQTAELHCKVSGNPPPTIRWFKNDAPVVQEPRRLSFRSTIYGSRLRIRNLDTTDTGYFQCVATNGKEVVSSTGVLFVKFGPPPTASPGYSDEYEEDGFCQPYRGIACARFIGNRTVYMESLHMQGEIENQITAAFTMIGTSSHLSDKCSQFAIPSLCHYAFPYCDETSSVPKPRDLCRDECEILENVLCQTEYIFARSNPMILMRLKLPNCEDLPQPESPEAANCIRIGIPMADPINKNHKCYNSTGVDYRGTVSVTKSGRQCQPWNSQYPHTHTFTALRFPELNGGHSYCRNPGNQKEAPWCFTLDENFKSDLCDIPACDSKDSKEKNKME
Protocol: (§5) A 96-well plate was coated at 4° C. for 16 hours with each of human ROR1 and mouse ROR1 proteins at a concentration of 2 μg/ml and then blocked using […]. […] After washing with PBST and distilled water, binding at room temperature for 1 hour using a goat-derived HRP-conjugated anti-human antibody (Invitrogen, 31482, Goat anti-Human IgG F(ab′)₂ Secondary Antibody, HRP) and then washing again using PBST and distilled water were performed. After color development by adding TMB substrate solution (Thermo Scientific, 34029, 1-Step™ Ultra TMB-ELISA Substrate Solution), the color reaction was stopped with stop solution (Invitrogen, SS04, ELISA Stop Solution), and the absorbance was measured at OD 450 nm. It was confirmed that the anti-ROR1 antibody of the present invention and the modified antibody thereof with improved biological and physical properties […] to human ROR1 and mouse ROR1 (FIG. 2).

EC50 (read off the curve)	Binder
~1 nM	B9
~1 nM	B7
~0.5 nM	B2
~1 nM	B8

These binders were tested against T7, mouse ROR1 (mouse, UniProt Q9Z139 30-403, limits assumed) (assay: ELISA, IgG on coated mouse ROR1, OD450).
T7 construct: also called mouse ROR1 protein
T7 sequence (Q9Z139 30-403 limits assumed): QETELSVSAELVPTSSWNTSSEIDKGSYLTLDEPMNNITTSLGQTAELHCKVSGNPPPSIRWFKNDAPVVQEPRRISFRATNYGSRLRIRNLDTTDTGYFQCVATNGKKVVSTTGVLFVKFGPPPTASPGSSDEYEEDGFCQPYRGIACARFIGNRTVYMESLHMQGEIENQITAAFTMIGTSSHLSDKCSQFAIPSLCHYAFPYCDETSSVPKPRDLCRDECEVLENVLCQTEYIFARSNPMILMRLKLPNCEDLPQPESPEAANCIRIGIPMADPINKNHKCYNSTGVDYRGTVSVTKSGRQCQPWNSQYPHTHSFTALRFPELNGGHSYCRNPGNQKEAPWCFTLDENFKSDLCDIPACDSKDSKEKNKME
Protocol: as §5

EC50 (read off the curve)	Binder
~1 nM	B7
~1 nM	B2

The binders below were run against T1, ROR1 expressed on cell surface (Jeko-1 …) (assay: flow cytometry on AMB-LC-0003T patient-derived lung cancer cells).
Protocol: as §1, §2

EC50	Binder
0.15 nM	B1
0.16 nM	B3
1.78 nM	B4
4.6 nM	B5

The binders below were run against T6, human ROR1 (assay: SPR (Biacore 3000), human ROR1 on CM5 chip, IgG injected, 1:1 Langmuir).
Protocol: (§6) To more quantitatively analyze the binding ability of the anti-ROR1 antibody to ROR1, SPR (surface plasmon resonance) was performed. A Biacore 3000 device (GE Healthcare) was used. Using the amine coupling method, human ROR1 or mouse ROR1 was diluted with 10 mM sodium acetate, pH 4.5 and immobilized on a CM5 sensor chip (GE Healthcare) at 300 response units (RU). The activated portion remaining on the surface of the sensor chip was deactivated by adding 1 M ethanolamine-HCl (pH 8.5).

Kd	koff	kon	Binder
0.17 nM	0.000239 s⁻¹	1.41e+06 M⁻¹ s⁻¹	B1
0.63 nM	0.00264 s⁻¹	4.18e+06 M⁻¹ s⁻¹	B9
0.0789 nM	0.000321 s⁻¹	4.07e+06 M⁻¹ s⁻¹	B6
0.4 nM	6.78e-05 s⁻¹	169000 M⁻¹ s⁻¹	B7
0.0912 nM	0.000157 s⁻¹	1.72e+06 M⁻¹ s⁻¹	B2
0.172 nM	0.000278 s⁻¹	1.62e+06 M⁻¹ s⁻¹	B3
3.08 nM	0.00382 s⁻¹	1.24e+06 M⁻¹ s⁻¹	B4
0.325 nM	0.00343 s⁻¹	1.06e+07 M⁻¹ s⁻¹	B5
0.845 nM	0.00249 s⁻¹	2.95e+06 M⁻¹ s⁻¹	B8

These binders were tested against T7, mouse ROR1 (assay: SPR (Biacore 3000), mouse ROR1 on CM5 chip, IgG injected, 1:1 Langmuir).
Protocol: as §6

Kd	koff	kon	Binder
0.102 nM	0.000176 s⁻¹	1.72e+06 M⁻¹ s⁻¹	B1
230 nM	0.129 s⁻¹	564000 M⁻¹ s⁻¹	B9
0.285 nM	0.000356 s⁻¹	1.25e+06 M⁻¹ s⁻¹	B6
0.833 nM	0.0001 s⁻¹	120000 M⁻¹ s⁻¹	B7
0.802 nM	0.0015 s⁻¹	1.87e+06 M⁻¹ s⁻¹	B2
0.175 nM	0.00034 s⁻¹	1.94e+06 M⁻¹ s⁻¹	B3
1.21 nM	0.00202 s⁻¹	1.67e+06 M⁻¹ s⁻¹	B4
0.328 nM	0.00269 s⁻¹	8.18e+06 M⁻¹ s⁻¹	B5
83.2 nM	0.0782 s⁻¹	940000 M⁻¹ s⁻¹	B8
